The assay addresses T1, mannose receptor (MR) on CHO-MR cells (Mus musculus, UniProt Q61830).
T1 construct: expressed in transfected cells; host or cells: CHO (CHO-MR overexpression line, gift of Luisa Martinez-Pomares)
T1 sequence (Q61830 20-1456): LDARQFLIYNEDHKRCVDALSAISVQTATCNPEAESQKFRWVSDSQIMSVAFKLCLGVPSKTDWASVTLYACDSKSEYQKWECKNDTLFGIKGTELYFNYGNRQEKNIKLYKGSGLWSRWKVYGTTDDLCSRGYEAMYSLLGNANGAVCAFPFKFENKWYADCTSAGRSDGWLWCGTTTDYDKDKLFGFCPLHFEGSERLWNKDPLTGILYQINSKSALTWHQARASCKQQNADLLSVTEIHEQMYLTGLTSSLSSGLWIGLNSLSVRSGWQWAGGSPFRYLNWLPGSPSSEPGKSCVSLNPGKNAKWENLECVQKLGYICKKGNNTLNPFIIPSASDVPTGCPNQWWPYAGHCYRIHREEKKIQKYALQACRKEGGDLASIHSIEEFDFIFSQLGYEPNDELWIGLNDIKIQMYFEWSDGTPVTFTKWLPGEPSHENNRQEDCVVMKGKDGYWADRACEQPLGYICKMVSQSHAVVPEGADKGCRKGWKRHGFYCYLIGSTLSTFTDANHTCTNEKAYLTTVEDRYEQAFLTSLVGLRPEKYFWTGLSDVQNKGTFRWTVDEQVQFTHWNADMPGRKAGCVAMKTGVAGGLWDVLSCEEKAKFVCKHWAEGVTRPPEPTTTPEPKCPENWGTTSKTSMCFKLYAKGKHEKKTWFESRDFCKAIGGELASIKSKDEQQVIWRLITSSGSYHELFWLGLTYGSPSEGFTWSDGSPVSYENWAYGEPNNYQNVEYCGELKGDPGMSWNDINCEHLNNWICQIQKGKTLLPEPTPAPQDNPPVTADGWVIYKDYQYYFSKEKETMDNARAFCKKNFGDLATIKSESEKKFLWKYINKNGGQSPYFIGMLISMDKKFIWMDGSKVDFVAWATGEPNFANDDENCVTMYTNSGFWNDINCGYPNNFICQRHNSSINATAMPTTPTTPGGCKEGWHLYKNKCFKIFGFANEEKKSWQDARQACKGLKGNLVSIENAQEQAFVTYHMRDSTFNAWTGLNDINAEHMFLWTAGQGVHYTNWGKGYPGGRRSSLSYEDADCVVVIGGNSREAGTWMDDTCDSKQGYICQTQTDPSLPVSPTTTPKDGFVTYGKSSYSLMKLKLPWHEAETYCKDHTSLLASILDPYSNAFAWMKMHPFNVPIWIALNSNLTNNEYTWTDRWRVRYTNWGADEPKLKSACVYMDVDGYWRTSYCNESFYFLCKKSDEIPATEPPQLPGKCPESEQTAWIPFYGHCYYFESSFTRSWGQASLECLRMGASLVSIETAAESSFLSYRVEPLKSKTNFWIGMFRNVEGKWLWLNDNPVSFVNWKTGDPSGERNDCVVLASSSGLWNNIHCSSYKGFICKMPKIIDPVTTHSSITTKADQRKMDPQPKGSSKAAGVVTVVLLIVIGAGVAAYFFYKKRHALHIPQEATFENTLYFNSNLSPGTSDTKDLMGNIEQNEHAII
Put plainly: Glyco-PAINT-APP single-molecule glycan binding on CHO-MR cells. The note with it: Suppl. Fig 9, glycan SLP, median. As for the experimental part:
Single molecule imaging was performed on a Nikon Ti2 N-STORM system equipped with TIRF module, Z piezo element, perfect focus system for axial drift correction and an OkoLab incubator with temperature and CO2 controller (37 °C and 5% CO2) for live-cell imaging. Recordings were acquired using the 647 nm excitation laser (160 mW, 1.9 kW/cm^2). Upon laser excitation, fluorescence was collected by a 100x 1.49 NA oil-immersion objective, passed through a quad-band dichroic mirror (97335 Nikon), and detected by a Hamamatsu ORCA Flash 4.0 CMOS camera with 160 nm pixel size. The signal was collected using the following settings: 512 × 512 pixel region, no binning, pixel depth 16-bit, exposure time 50 ms, live-cell observation and 2D-STORM (lens out), zoom 1x, lens x0.4, and for live-cell observation at 37 °C, the correction collar was set to position 8160.
5 x 10^4 CHO-MR or 1 x 10^5 WT, MR^−/− BMDC or BMDM were seeded in 8-well glass-bottomed microscopy slides (Ibidi, 80827) in complete medium. After equilibration in the microscope incubator, fluorescent glycan was added at 5 nM for CHO-MR and 10 nM for BMDC or BMDM experiments. Then, cells were brought into focus using brightfield illumination and 2000 frames (at 50 ms intervals) were recorded within a single field-of-view at 40–60% of maximum 647 nm laser power using TIRF illumination. For indicated experiments, Cytochalasin D (Focus Biomolecules) was added to a final concentration of 10 µM for 30 min prior to acquisition.
Processing of recordings using Glyco-PAINT-APP was performed as described in a step-by-step procedure in the Supplementary Software Manual in the Supplementary Information and accompanying Supplementary Videos 1 and 2. For the TrackMate processing, a batch file (Experiment Info.csv) containing the experiment metadata and tracking parameters was created. Threshold values were set to 5, 10 or 15 such that no more than 1.500.000 spots were detected. Recordings were then processed in TrackMate using the ‘Run TrackMate Batch’ plugin provided by the Glyco-PAINT-APP. Through this plugin, spot detection and tracking by TrackMate[70] was performed as indicated in the batch file using the Simple LAP tracker algorithm with a maximum frame gap of 3, a max linking distance of 0.6 μm and a gap closing max distance of 1.2 μm. Tracks with only two spots were discarded. For the parameter sensitivity analysis, each tracking or spot detection was varied as indicated, whilst the others were kept at aforementioned values (Basis scenario).
With the Glyco-PAINT-APP utility ‘Generate Squares’, a grid of squares was overlaid, and kinetic properties for each square were calculated. Default parameters for grid processing are (deviations are mentioned in figure captions): Nr of Squares in row 20, Minimum Tracks to Calculate Tau 20, Min allowable R Squared 0.1, Min Required Density Ratio 2, Maximum Allowable Variability 10 and Neighbour Mode Free.
For every recording, a background track count was calculated by averaging the track count of the 40 (10% of the total number of squares) least dense squares. Only squares for which the track count exceeded the Min Required Density Ratio of 2 were considered (and the remaining ignored as background). For each square, the variability was calculated and only squares for which the variability was less than the Maximum Allowable Variability of 10 were considered. For squares meeting both the Minimum Required Density Ratio and Maximum Allowable Variability criteria, and containing at least the Minimum Tracks to Calculate Tau kinetic parameters, including kon, koff and MSD were calculated as in Riera et al.[10], or copied from the TrackMate Tracks table output (for velocity, displacement, and track duration).

From publication PMC12830989, “Subcellular glycan-mannose receptor binding kinetics correlate with myeloid cell function” (Nature Communications, 2025) come the findings set out here.

sCy5 = sulfo-Cy5

With “Ac-Lys(Man)-Lys(Man)-Lys(Man)-Lys(Man)-Lys(Man)-Lys(Man)-TEG-Asp-Glu-Val-Ser-Gly-Leu-Glu-Gln-Leu-Glu-Ser-Ile-Ile-Asn-Phe-Glu-Lys-Leu-Ala-Ala-Ala-Ala-Ala-Lys(sCy5)-NH2 ({Ac-K(Man)-K(Man)-K(Man)-K(Man)-K(Man)-K(Man)-TEG}-DEVSGLEQLESIINFEKLAAAAAK(sCy5)-NH2) [6 Mono(3), hexavalent monomannosylated OVA SLP with sulfo-Cy5]”, under “CHO-MR + CytD”, the “koff−1” value stood at 115 ms and the kon stood at 8.9 evts μm−2 sec−1. Besides, where the note is “CHO-MR”, the “koff−1” value came to 117 ms and the kon was 5.2 evts μm−2 sec−1.
In the case of “Ac-Lys(triMan)-TEG-Asp-Glu-Val-Ser-Gly-Leu-Glu-Gln-Leu-Glu-Ser-Ile-Ile-Asn-Phe-Glu-Lys-Leu-Ala-Ala-Ala-Ala-Ala-Lys(sCy5)-NH2 (DEVSGLEQLESIINFEKLAAAAAK; Ac-Lys(triMan)-TEG, sulfo-Cy5, C-amide; printed: Asp-Glu-Val-Ser-Gly-Leu-Glu-Gln-Leu-Glu-Ser-Ile-Ile-Asn-Phe-Glu-Lys-Leu-Ala-Ala-Ala-Ala-Ala-Lys) [1 Tri(4), monovalent trimannosylated OVA SLP with sulfo-Cy5]”, the “koff−1” value is, setting by setting: (CHO-MR + CytD) 144 ms; (CHO-MR) 79 ms. Moreover, the kon by setting is: (CHO-MR + CytD) 7.1 evts μm−2 sec−1; (CHO-MR) 2.8 evts μm−2 sec−1.
The matching figures for “Ac-Lys(Man)-Gly-Lys(Man)-TEG-Asp-Glu-Val-Ser-Gly-Leu-Glu-Gln-Leu-Glu-Ser-Ile-Ile-Asn-Phe-Glu-Lys-Leu-Ala-Ala-Ala-Ala-Ala-Lys(sCy5)-NH2 ({Ac-K(Man)-Gly-K(Man)-TEG}-DEVSGLEQLESIINFEKLAAAAAK(sCy5)-NH2) [2 Mono(2), bivalent monomannosylated OVA SLP with sulfo-Cy5]”: 85 ms, 91 ms, 8.2 evts μm−2 sec−1 and 6.2 evts μm−2 sec−1.
The matching figures for “Ac-Lys(triMan)-Gly-Lys(triMan)-TEG-Asp-Glu-Val-Ser-Gly-Leu-Glu-Gln-Leu-Glu-Ser-Ile-Ile-Asn-Phe-Glu-Lys-Leu-Ala-Ala-Ala-Ala-Ala-Lys(sCy5)-NH2 (DEVSGLEQLESIINFEKLAAAAAK; two Lys(triMan), TEG, sulfo-Cy5, C-amide; printed: Asp-Glu-Val-Ser-Gly-Leu-Glu-Gln-Leu-Glu-Ser-Ile-Ile-Asn-Phe-Glu-Lys-Leu-Ala-Ala-Ala-Ala-Ala-Lys) [2 Tri(5), bivalent trimannosylated OVA SLP with sulfo-Cy5]”: 108 ms, 117 ms, 4.6 evts μm−2 sec−1 and 5 evts μm−2 sec−1.
Consider “Ac-Lys(triMan)-Lys(triMan)-Lys(triMan)-Lys(triMan)-Lys(triMan)-Lys(triMan)-TEG-Asp-Glu-Val-Ser-Gly-Leu-Glu-Gln-Leu-Glu-Ser-Ile-Ile-Asn-Phe-Glu-Lys-Leu-Ala-Ala-Ala-Ala-Ala-Lys(sCy5)-NH2 (DEVSGLEQLESIINFEKLAAAAAK; six Lys(triMan), TEG, sulfo-Cy5, C-amide; printed: Asp-Glu-Val-Ser-Gly-Leu-Glu-Gln-Leu-Glu-Ser-Ile-Ile-Asn-Phe-Glu-Lys-Leu-Ala-Ala-Ala-Ala-Ala-Lys) [6 Tri(6), hexavalent trimannosylated OVA SLP with sulfo-Cy5]”, for which the “koff−1” value is recorded as 85 ms (CHO-MR + CytD) and 101 ms (CHO-MR). The kon by setting is: (CHO-MR + CytD) 4.8 evts μm−2 sec−1; (CHO-MR) 6.2 evts μm−2 sec−1.
With “Ac-Lys(Man)-TEG-Asp-Glu-Val-Ser-Gly-Leu-Glu-Gln-Leu-Glu-Ser-Ile-Ile-Asn-Phe-Glu-Lys-Leu-Ala-Ala-Ala-Ala-Ala-Lys(sCy5)-NH2 ({Ac-K(Man)-TEG}-DEVSGLEQLESIINFEKLAAAAAK(sCy5)-NH2) [1 Mono(1), monovalent monomannosylated OVA SLP with sulfo-Cy5]”, where the note is “CHO-MR + CytD”, the “koff−1” value is reported as 63 ms and the kon is reported as 3.9 evts μm−2 sec−1. In addition, where the note is “CHO-MR”, the “koff−1” value was 68 ms and the kon came out at 3.8 evts μm−2 sec−1.
